From US20050147602 come the findings set out here.

The subject of data set [1] is myc-tagged CHO cell-expressed CTHRC1.
The subject of data set [2] is His-tagged CTHRC1 expressed in Chinese hamster ovary cells (CHO).

As to thrombin, the “cleavage of CTHRC1 (immunoblot after digestion)” value in data set [1] was “MMP-7 and thrombin do not cleave CTHRC1”.

On to matrix metalloprotease 1 (MMP-1), for which the “cleavage of CTHRC1 (immunoblot after 15 and 60 minutes digest)” value in data set [1] is reported as “MMP-1 (FIG. 31) cleave CTHRC1 near the N terminus”.

Turning to “highly purified bacterial collagenase (VII, Sigma)”, the “cleavage of CTHRC1 (immunoblot after digestion)” value in data set [2] was “highly purified bacterial collagenase (Sigma) (FIG. 30), as well as MMP-1 (FIG. 31) cleave CTHRC1 near the N terminus”.

With MMP-7, the “cleavage of CTHRC1 (immunoblot after digestion)” value in data set [1] was “MMP-7 and thrombin do not cleave CTHRC1”.
